Measured values from patent US20260201030A1, “ANTIBODY, ANTIBODY-DRUG CONJUGATE THEREOF AND USE THEREOF” (EVOPOINT BIOSCIENCES CO., LTD., priority 2021, published 2026).
Residue numbers refer to the chain shown, from its start. One block for each molecule: values may come before it.

What was measured:
Type in all cases: binding
human Claudin18.2 [1] = target: T1, human Claudin18.2 (Homo sapiens, UniProt P56856); test: Cell-based ELISA affinity of murine antibodies on HEK293T-Claudin18.2 (human) cells
T1 construct: expressed in transfected cells
Description: (§1) The affinity of the anti-human Claudin18.2 murine monoclonal antibodies was evaluated by cell-based ELISA. The experimental procedures were as follows: The day before the experiment, HEK293T-Claudin18.2 (human) cells were plated in a 96-well plate at 5×10^4 cells/well. On the day of the experiment, the supernatant was removed, the cells in each well were washed once with 300 μL of PBS, and 100 μL of 4% paraformaldehyde was added to each well for fixation at room temperature for 20 min. Paraformaldehyde was then removed, and the cells in each well were washed twice with 300 μL of PBS. 100 μL of 2% BSA (in PBS) was added to each well, and the mixture was blocked at 37° C. for 2 h. After removing the blocking solution, each antibody subjected to gradient dilution (diluted with 2% BSA (in PBS), starting at […], in a 3-fold gradient, for a total of 11 concentration points) was added to the plate at 100 μL/well, and the mixture was incubated at 37° C. for 2 h. The supernatant was removed, and the cells in each well were washed three times with 300 μL of PBST. 100 μL of an anti-mouse IgG HRP secondary antibody (Jackson, cat #115-035-003) in 2% BSA was added to each well, and the mixture was incubated at 37° C. for 1 h. The secondary antibody was then removed, and the cells in each well were washed five times with 300 μL of PBST, followed by the addition of 100 μL of a TMB substrate (Huzhou InnoReagents Co., Ltd.) per well for color development for 5-20 min. The reaction was stopped by adding 50 μL of 2 N HCl to each well, and OD450 nm values were read on a microplate reader (manufacturer: MD, model: SpectraMax). The values obtained were plotted by GraphPad Prism to calculate the EC50 value.

human Claudin18.2 [2] = target: T1, human Claudin18.2; test: Cell-based ELISA affinity of humanized antibodies on L929-Claudin18.2 (human) cells; settings: L929-Claudin18.2 cells
human Claudin18.2 [3] = target: T1, human Claudin18.2; test: Cell-based ELISA affinity of humanized antibodies on HEK293T-Claudin18.2 (human) cells; settings: HEK293T-Claudin18.2 cells
Description: as §1
The affinity of the anti-human Claudin18.2 humanized monoclonal antibodies was determined by cell-based ELISA. The cell-based ELISA was conducted as described in Example I-3.

human Claudin18.1 = target: T2, human Claudin18.1 (Homo sapiens, UniProt P56856); test: FACS specificity of humanized antibodies on HEK293T-Claudin18.1 (human) cells; settings: antibody 50 μg/mL, APC secondary antibody
T2 construct: expressed in transfected cells
Description: The specificity of the anti-human Claudin18.2 humanized monoclonal antibodies was determined by flow cytometry (FACS). The experimental procedures were as follows: HEK293T-Claudin18.1 (human) cells were digested, collected by centrifugation, washed three times with pre-cooled PBS, resuspended in 1% BSA (in PBS), and added to a 96-well pointed bottom plate at 3×10^5 cells/well. Each test antibody with a final concentration of 50 μg/mL was added, and the mixture was incubated at 4° C. for 1 h. The cells were washed three times with pre-cooled PBS, and then 1 μL of a fluorescent secondary antibody (APC: Biolegend-410712 or PE: BioLegend-410708) was added to each well. The mixture was incubated at 4° C. for 0.5 h, and the cells were washed three times with pre-cooled PBS, then resuspended, and assayed on a flow cytometer. For reference, anti-human Claudin18.1 positive control antibodies (positive control antibody-1 and positive control antibody-2) were included in the experiment.

Affinity HEK293T-18.2 EC50 (human Claudin18.2 [1]): 10.49 ng/mL
B1: 25C7A5: anti-human Claudin18.2 murine monoclonal antibody, VH SEQ ID NO: 21, VL SEQ ID NO: 22 (antibody, V domains shown)
VH: EVQLQQPGAELVKPGTSVKLSCKASGYTFTNYWLHWVRQRPGQGLEWIGMMHPISGSSNNNERFKSKATLTVDKSSTTAYMQLSRMTSEDSAVYYCARGLLSAMDYWGQGTSVTVSS
VL: CIVLTQSPKSMSMSVGERVTLSCKASENVKTYVSWYQQRPEQSPKLLIYEASNRYTGVPDRFTGSGSATVFTLTISSVQTEDLANYFCGQTYSFPPTFGSGTKLEIK

Affinity HEK293T-18.2 EC50 (human Claudin18.2 [1]): 2.399 ng/mL
B2: 32F7A6: anti-human Claudin18.2 murine monoclonal antibody, VH SEQ ID NO: 52, VL SEQ ID NO: 53 (antibody, V domains shown)
VH: QIQLVQSGPELRKPGETVKISCKASGYTFTAYTMGWVKQAPGKGLEWMAWINTYSGVPTYAADFKGRFAFSLETSASTAYLLINNLKNEDTATYFCARGVRGNSMDYWGQGTSVTVSS
VL: DIVETQSPSSLTVTVGERVTLSCKSSQSLLNSGNQRNYLTWSQQKPGQPPKLLIYWASTRESGVPNRFTGGGSGTYFTLTISSVQVEDLAVYYCQNTYSFPFTFGTGTKLEIK

Affinity detected by cell-based ELISA (EC50, ng/mL) L929-Claudin18.2 (human Claudin18.2 [2]): 25.62 ng/mL | Affinity detected by cell-based ELISA (EC50, ng/mL) HEK293T-Claudin18.2 (human Claudin18.2 [3]): 14.01 ± 2.29(N = 2) ng/mL | Mean APC fluorescence signal value (human Claudin18.1): 382 | Median APC fluorescence signal value (human Claudin18.1): 329 | Positive rate (%) (human Claudin18.1): 1%
B3: 2D3A11-HZ2: humanized anti-Claudin18.2 antibody, VH SEQ ID NO: 40, VL SEQ ID NO: 39 (antibody, V domains shown)
VH: QVQLVESGAEVKKPGASVKVSCKASGYTFTSYVVHWVRQAPGQGLEWMGYINPYNADSKYSQEFQGRATLTSDKSASTAYMELSSLRSEDMAVYYCSRSYYGNSFDVWGQGTLVTVSS
VL: DIVMTQSPDSLAVSLGERATINCKSSQSLLNSGNQKNYLTWYQQKPGQSPKLLFFWASTRQSGVPDRFSGSGSGTDFTLTISSLQAEDVAVYYCQNDYYFPFTFGQGTKVEIK

Affinity HEK293T-18.2 EC50 (human Claudin18.2 [1]): 8.143 ng/mL
B4: 2D3A11: anti-human Claudin18.2 murine monoclonal antibody, VH SEQ ID NO: 23, VL SEQ ID NO: 24 (antibody, V domains shown)
VH: EVQLQQSGPELVKPGASVRMSCKASGYTFTSYVVHWVKQKPGQGLEWIGYINPYNADSKYNERFKGKATLTSDKSSNSAYMELSSLTSEDSAVYYCSRSYYGNSFDVWGAGTTVTVSS
VL: DIVMTQSPSSLTVTTGEKVTMSCKSSQSLLNSGNQKNYLTWYQQKPGQSPKLLFFWASTRQSGVPDRFTGSGSGTYFTLTISSVQAEDLAVYYCQNDYYFPFTFGTGTKLEIK

Affinity HEK293T-18.2 EC50 (human Claudin18.2 [1]): 5.024 ng/mL
B5: 1A6G10: anti-human Claudin18.2 murine monoclonal antibody, VH SEQ ID NO: 46, VL SEQ ID NO: 47 (antibody, V domains shown)
VH: QVQLKESGGGLVKPGGSLKLSCAASGFTFSSYAMSWVRQTPEKRLEWVAAIHSNGGSTYNSDTMRDRFTISRDHAKNTLYLQMSSLRSEDTALYYCGRQSFGNALDYWGQGTSVTVSS
VL: DIQMTQSPSSLTVTAGEKVTLTCKSSQSLLNSGNQKNYLTWYQQKPGQPPKLLIYWASTRESGVPDRFTGSGSGTFFTLTISSVQAEDLAVYFCQNDYVYPFTFGAGTQLELK

Affinity HEK293T-18.2 EC50 (human Claudin18.2 [1]): 12.32 ng/mL
B6: 8H11A10: anti-human Claudin18.2 murine monoclonal antibody, VH SEQ ID NO: 44, VL SEQ ID NO: 45 (antibody, V domains shown)
VH: QVQLKESGPVLVAPSQSLSITCTVSGFSLTNYGVHWVRQPPGKGLEWLGVIWSGGRTNYNSALMSRLSISKDNSKSQVFLKMNSLQTDDTAMYYCAKRDGIYGDYWGQGTSVTVSS
VL: DIVETQSPSSLTVTAGEKVTMSCKSSQSLLNSGNQKNYLTWYQQKPGQSPKLLIYWASTRESGVPDRFTGSGFGTDFTLTISSVQAEDLAVYYCQNDYIYPLTFGAGTKLELK

Affinity HEK293T-18.2 EC50 (human Claudin18.2 [1]): 6.015 ng/mL
B7: 23F2F2: anti-human Claudin18.2 murine monoclonal antibody, VH SEQ ID NO: 48, VL SEQ ID NO: 49 (antibody, V domains shown)
VH: QVQLKESGGGLVQPGGSMKLSCAASGFTFSDAWMNWVRQSPEKGLEWVAEIRNKADYHATHYVESVTGRFTISRDDSKSSVYLQMNRLRAEDTGIYYCTRNYGSRFDYWGQGTTLTVSS
VL: B6 VL with K36R, Q48H, S49P, F73S, I81V, S82T, I99F, T103A, A106T

Affinity HEK293T-18.2 EC50 (human Claudin18.2 [1]): 7.376 ng/mL
B8: 40G11H2: anti-human Claudin18.2 murine monoclonal antibody, VH SEQ ID NO: 50, VL SEQ ID NO: 51 (antibody, V domains shown)
VH: EVQLQQSGAELARPGASVKLSCKASGYTFTSYGIRWVKQRTGQGLEWIGEIYPRGGNTYYDEKFKGKATLTADKSSSTAYMGLRSLTSEDSAVYFCARADYGNSFAYWGQGTLVTVSA
VL: DIVMTQSPSSLTVTAREKVTMSCKSSQSLLNSGNQKNYLTWYHQKPGQPPKLLIYWASTRESGVPDRFTGSGSGTDFTLTISSVQAEDLAVYFCQNAYFYPFTFGTGTKLEIK
